# Experimental data published in the supplement of paper PMC10899765.
# Columns and labels:
# Details in all cases: 20 nM; 72 h
# MCF10A [1] = test: percent viability (nuclei count relative to siNT); higher = more viable cells
# Description: (§1)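 After 72 h, cells were fixed and stained with Hoechst and anti-fibrillarin, and nucleoli per nucleus were counted with CellProfiler. Values are plate-adjusted percent effect for the one-nucleolus and 5+ nucleoli phenotypes, normalised to siNT (0%) and to the positive controls siNOL11 or siKIF11 (100%), as the mean of biological triplicates. Percent viability is the nuclei count relative to siNT.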
# MCF10A [2] = test: 5+ nucleoli phenotype percent effect (relative to siNT 0% and siKIF11 100%); higher = more cells with five or more nucleoli
# Description: as §1
# MCF10A [3] = test: one-nucleolus phenotype percent effect (relative to siNT 0% and siNOL11 100%); higher = more cells with one nucleolus (ribosome biogenesis inhibition)
# Description: as §1
Sequence,percent viability (MCF10A [1]) [%],5+ nucleoli phenotype percent effect (MCF10A [2]) [%],one-nucleolus phenotype percent effect (MCF10A [3]) [%]
UAGUACCAGUACCUUGUGUUCA [hsa-miR-624-5p],26.3,-9.19,-2.83
CACACAUAGCAGGUGUAUAUA [hsa-miR-4789-3p],67.3,39.4,-24.6
CAACAAAUCCCAGUCUACCUAA [hsa-miR-7-2-3p],104,4.35,-10.8
UGGGAUCCAGACAGUGGGAGAA [hsa-miR-4713-3p],26,16.3,-1.28
CACAGGACUGACUCCUCACCCCAGUG [hsa-miR-4700-3p],83.5,43.2,-16
CGGGGCCAUGGAGCAGCCUGUGU [hsa-miR-6762-5p],86.4,28.2,-11.4
AGCCGCUCUUCUCCCUGCCCACA [hsa-miR-6743-3p],58,35.5,-1.42
GAAGCUCUCCCCUCCCCGCAG [hsa-miR-6796-3p],103,5.79,-14.7
AUCAAAUAAGGACUAGUCUGCA [hsa-miR-3671],74.3,14.8,-10.1
UCAAAACUGAGGGGCAUUUUCU [hsa-miR-1323],55.9,27.8,-19.4
AAAUCUCUGCAGGCAAAUGUGA [hsa-miR-216b],97.3,44.2,-16.2
UGCGGCAGAGCUGGGGUCA [hsa-miR-6820-5p],16.9,3.87,11.9
CAAGUCACUAGUGGUUCCGUU [hsa-miR-224-5p],38.7,-41,15.4
GCAGAGAACAAAGGACUCAGU [hsa-miR-3919],23.3,-14.9,38.7
UCCCCUCCACUUUCCUCCUAG [hsa-miR-6887-3p],33.5,-13.1,-0.315
UGAGAACUGAAUUCCAUGGGUU [hsa-miR-146a-5p],51.1,-31.6,9.23
UUCACCCCUCUCACCUAAGCAG [hsa-miR-6802-3p],63.6,15.5,-11.2
ACUGCAGUGAAGGCACUUGUAG [hsa-miR-17-3p],70.9,12.2,-6.73
UCUCUGGUCUUGCCACCCCAG [hsa-miR-6824-3p],26.4,-18.8,16.2
UUACACACAACUGAGGAUCAUA [hsa-miR-3941],16.8,0.22,7.76
UCCAGCUCGGUGGCAC [hsa-miR-4267],34.5,11.3,-0.0012
CGUCCCGGGGCUGCGCGAGGCA [hsa-miR-4449],75.7,-7.62,-6.92
CUGGCAGGGGGAGAGGUA [hsa-miR-7150],43.9,0.85,46.7
UGUAAACAUCCCCGACUGGAAG [hsa-miR-30d-5p],62.7,30.3,0.554
AAAGUGCUUCCCUUUGGACUGU [hsa-miR-520a-3p],60.8,40.6,-9.18
